Here are results for 15 molecules from patent publication US20040208887A1 (MOLECULES OF MAN, published 2004).

B1: Fab clone 2a-23 (Fab, V domains shown)
VH: EVQLLESGAGVVQPGKSLTLSCVGSGFTFSIYAMHWVRQAPGKGLEWVAVLSSDGSNDYYADSVKGRFSIFRDTSKNSLNLLMNNVRGEDTAVYYCARDGDGSFFYWGQGTLVTVSS
VL: AELTQSPAFMSATPGDKVNISCKASQDIDDDMNWYQQKPGEAAIFIIQEATTLVPGIPPRFSGSGYGTDFTLTINNIESEDAAYYFCLQHDNFPLTFGQGTKVEIK
notes: Human Fab (gamma1 Fd + kappa), crude periplasmic preparation, approx. 0.50 ug Fab/ml
B2: Fab clone 1:9 (Fab, V domains shown)
VH: EVQLLESGPGLVKPSETLSLTCTVSGNSISSGYYWVWFRQSPGKGLEWIASIYHSGSTYYNPSLRSRVSISVDTSKKQFSLKLSSVTAADTAVYYCARDSAKTTRYFVHWGQGTLVTVSS
VL: AELTQSPGTLSLSPGERATLSCRASQSVSSSYLAWYQQKAGQAPRLLIYGASRRATGIPVRFSGSGSGAEFTLTISSLQSEDSAVYYCQHYHNWPAMYTFGQGTKLEIK
notes: Human Fab (gamma1 Fd + kappa), crude periplasmic preparation, approx. 0.05 ug Fab/ml
B3: Fab clone 6a:5 (Fab, V domains shown)
VH: EVQLLESGPGLVKPSQTLSLTCAISGDNVSRKSAAWNWIRQSPSRGLEWLGRTYHMSKWYSVYATSLKSRININVDTSRNQFALQLRSVTPEDTAVYYCAREGPEWAVGGTYGMDVWGQGTTVTVSS
VL: AELTQSPDTLSLSPGERATLSCRASQSVNNNYLAWYQQKPGQAPRLLIYGASSRATGIPDRFSGSGSETDFTLTISRLEPEDFAVYYCQQYDSSRTFGQGTKVEIK
notes: Tested as a human Fab (gamma1 Fd + kappa), crude periplasmic preparation, approx. 0.33 ug Fab/ml
B4: Fab clone 2a-25 (Fab, V domains shown)
VH: VQLLEQSGAEVKKPGASVKVSCKASGYMFTCYYMHWVRQAPGQGLEWMGMVNPTGGSSSYAQKFQGRVTMTKGHVTSTVYMELSSLRSEDTAVYYCATGMVRGDEWGQGTLVTVSS
VL: AELTQSPSFSSASVGDRVTITCRASHGISSHLAWFQHKPGKAPNLLIYAASTLQSGVPSRFSGSQSGTEFTLTITSLHPEDFATYYCQQLYTWPMGFGQGTRLEIT
notes: Human Fab (gamma1 Fd + kappa), crude periplasmic preparation, approx. 0.11 ug Fab/ml
B5: Fab clone 2a-4 (Fab, V domains shown)
VH: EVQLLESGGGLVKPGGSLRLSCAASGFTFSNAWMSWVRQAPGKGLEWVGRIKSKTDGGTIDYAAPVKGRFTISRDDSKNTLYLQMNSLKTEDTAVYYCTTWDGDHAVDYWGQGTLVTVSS
VL: AELTQSPSSLSASIGDRVAISCQASQDIGNYLNWYQQKPGKAPRLLIYDASNLEAGVPSRFSGSGSGTDFTLTISTLQPEDFATFYCQQTDSTPYTFGQGTKLEIR
notes: Human Fab (gamma1 Fd + kappa), crude periplasmic preparation, approx. 1.0 ug Fab/ml
B6: Fab clone 4:6 (Fab, V domains shown)
VH: VQLLEQSGAEVKKPGASVKVSCKASGYTFTKYYLHWVRQAPGQGLEWMGFINPSGGSTSSAQKFQGRISMTRDTSTTTVYMEVNSVTSEDTAVYYCARVGRLGVGATGAFDLWGQGTMVTVSS
VL: AELTQSPSSLSASVGDRVTITCQASQDINYSLNWYQQKPGKPPKLLIYYASHSDTGVPSRFSGGGSGTRFTLTIYSLQPEDIATYYCQHFDHVPRYTFGPGTKVDLK
notes: Tested as a human Fab (gamma1 Fd + kappa), crude periplasmic preparation, approx. 0.24 ug Fab/ml
B7: Fab clone 2a-13 (Fab, V domains shown)
VH: EVQLLESGPGLVKPSETLSLTCTVSGGSISDYYWSWIRQPPGKGLEWIGHTYDNGGTKYNPSLKSRASISVDTSKNQVSLRLTSVTAADTAVYYCATAFLDNSGWYTFDSWGQGSLVTV
VL: AELTQSPSSVSASVRDRVTITCRASQGISTWLAWYQQKPGKAPKLLIYAASTLQSGVPSRFSGSGSGTDFTLTIGSLQPEDVATYYCQQANSFPPGALTFGGGTKVEVK
notes: Human Fab (gamma1 Fd + kappa), crude periplasmic preparation, approx. 0.36 ug Fab/ml
B8: Fab clone 1:8 (Fab, V domains shown)
VH: EVQLLESGGGLVEPGRSLRLSCAASGFNFGDYAIHWVRQGPGKGLEWVAGISWNSGSIGYADSVKGRFIISRDNAKKTLFLQMNTLRTEDTALYYCVKETGAQGVAGSGAYYFHNWGQGTLVTVSS
VL: AELTQSPSSLSASIGDRVTITCRASQGISNYVAWYQQRPGKVPKLLIFGASALHSGVPSRFSGSGSGTDFTLTITSLQPEDVATYYCQKYRSAPLTFGPGTRVDLK
notes: Human Fab (gamma1 Fd + kappa), crude periplasmic preparation, approx. 0.01 ug Fab/ml
B9: Fab clone 1:10 (Fab, V domains shown)
VH: EVQLLESGAEVKKPGESLRISCRGSGYSFPNYWVSWVRQMPGKGLEWMGKIDPSDSETNYSPSFQGHVTISADKSLSIAYLQWNSLKASDTAMYYCARHKRGAPTYKDILTGYYVDGMDVWGQGTTVTVSS
VL: AELTQSPDSLAMSLGERASINCKSSRSLLYSSNNKNYLAWYQQKSGHPPKLLIYWASTRESGVPDRFNGSGSGTDFTLTISSLQAEDVAVYFCQQYYSSPLTFGGGTKVEIK
notes: as for B8
B10: Fab clone 2a-5 (Fab, V domains shown)
VH: EVQLLESGPGLVKPSETLSLTCTVSTGSISGYFWSWIRQPPGKGLEWIAYIHNSGNTNYNPSLRSRVTVSIDTSKNQFSLKLTSVTAADTAVYYCARDGGGWDTYLDSWGQGFLVTVSS
VL: AELTQSPSSLSASVGDRVTITCRASQTVSSYLNWYQQKPGKAPKVLIYGISTLQSGVPSRFSGSGSETDFTLTISNLQPEDFAIYYCQQSYSSRTFGQGTKVEIK
notes: Human Fab (gamma1 Fd + kappa), crude periplasmic preparation, approx. 0.44 ug Fab/ml
B11: Fab clone 13 (Fab, V domains shown)
VH: EVQLLESGGGLVQPGRSLRLSCAASGFTFDDYGMHWVRQAPGKGLEWVSGLSWNSDNIGYADSVKGRFTISRDNAKNSLYLQMNSLKIEDTAFYYCAKAPRTLRFLEWHNVYFDLWGRGTLVTVSS
VL: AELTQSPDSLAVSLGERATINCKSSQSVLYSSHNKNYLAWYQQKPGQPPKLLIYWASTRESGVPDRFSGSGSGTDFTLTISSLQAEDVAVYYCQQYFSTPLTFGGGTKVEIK
notes: Human Fab (gamma1 Fd + kappa light chain), tested as a crude periplasmic preparation, approx. >3 ug Fab/ml
B12: Fab clone 98 (Fab, V domains shown)
VH: EVQLLEQSGAEVKKPGESLRISCRGSGYSFPNYWVSWVRQMPGKGLEWMGKIDPSDSETNYSPSFQGHVTISADKSLSIAYLQWNSLKASDTAMYHCARHKRGAPTYKDILTGYYVDGMDVWGQGTTDTVSS
VL: AELTQSPSSLSASVGDRVTITCQASPDISNYLNWYQQKPGKAPNLLIYGASSLQRGVPSRLSGSGSGTDFTLTIDSLQPEDFATYYCQQSYGSPHTFGQGTKVEIK
notes: Human Fab (gamma1 Fd + kappa light chain), tested as a crude periplasmic preparation, approx. 5 ug Fab/ml
B13: Fab clone 2b-17 (Fab, V domains shown)
VH: EVQLLESGGGLVQPGRSLRLSCAASGFTFSNSDMHWVRQAPGKGLEWVTVSSRDGYDNYYADSVRGRFTISRDNSKNTLYLQMNTLRAEDTAVYYCAKRRGYAFDIWGQGTMVTVSS
VL: AELTQSPSSLSASVGDRVTITCRASQSINTYLNWYQQKPGKAPELLIYGASSLQSGVPSRFSGSGSGTDFTLTITSLQAEDFASYFCQQSDSTPRTFGQGTKVEIK
notes: Human Fab (gamma1 Fd + kappa), crude periplasmic preparation, approx. 0.16 ug Fab/ml
B14: Fab clone 2b-9 (Fab, V domains shown)
VH: LLESGPGLVQPSQTLSLTYAISGDSVSSNSAAWTWIRQSPSRGLEWLGMTYYRSQWYHEYAVSLKSRITINADTSNNQFSLQVNSVTPEDTALYYCARARFVGDTTGYYTFDYWGQGTLVTVSS
VL: AELTQSPGTLSLSPGERGTLSCRASQSVSSSYLAWYQQKAGQAPRLLIYGASSRATGIPDRFSGSGSGTDFTLTISRLEPEDFAVYYCQRYGTSPKTFGQGTKVEFK
notes: Human Fab (gamma1 Fd + kappa), crude periplasmic preparation, approx. 0.19 ug Fab/ml
B15: Fab clone 2a-40 (Fab, V domains shown)
VH: VQLLEQSGGGLVKPGGSLRLSCTASGFTFSGFTFSDHYMSWIRQAPGKGLELVSYIISNGYTNYPDSVKGRFTVSRDNARKSLYLQMNSLRVEDTAIYYCARGLSPSIAGDGFDIWGQGTMVTVSS
VL: B1 VL
notes: as for B5

One test concerns the target T1, recombinant soluble HCV E1 protein (hepatitis C virus).
T1 construct: It is not the cell-surface E1-myc construct (aa 174-359 of H77c) that was used for phage selection; also called recombinant E1; soluble E1 protein
The experiment in a line: ELISA, recombinant E1 captured on GNA lectin; crude periplasmic Fab.
In the case of B1, the OD405 nm was determined as 1.47 OD405 nm.

On to B2, for which the OD405 nm was 0.96 OD405 nm.

Consider B3, for which the OD405 nm is 0.15 OD405 nm. Consider B4, for which the OD405 nm is 1.46 OD405 nm. For B5, the OD405 nm turned out to be 1.18 OD405 nm.

On to B6, for which the OD405 nm is 0.97 OD405 nm. The same measure, in the same setting: under B7 stands 1.05 OD405 nm; under B8, 0.75 OD405 nm. For the molecule B9, the OD405 nm worked out at 0.2 OD405 nm. Still for that read-out and setting: the figure for B10 is 0.89 OD405 nm; for B11 it is 0.2 OD405 nm. As for B12, the OD405 nm was found to be 0.2 OD405 nm. B13: the OD405 nm came out at 0.24 OD405 nm. Take B14: the OD405 nm was determined as 0.33 OD405 nm.

A further test deals with T2, recombinant E1/E2 heterodimer protein (genotype 1a) (hepatitis C virus genotype 1a, UniProt P26664 192-383; P26664 384-746, limits assumed).
T2 construct: also called E1/E2 in complex; recombinant E1/E2 antigen
T2 sequence (P26664 192-383 limits assumed, chain 1 of 2): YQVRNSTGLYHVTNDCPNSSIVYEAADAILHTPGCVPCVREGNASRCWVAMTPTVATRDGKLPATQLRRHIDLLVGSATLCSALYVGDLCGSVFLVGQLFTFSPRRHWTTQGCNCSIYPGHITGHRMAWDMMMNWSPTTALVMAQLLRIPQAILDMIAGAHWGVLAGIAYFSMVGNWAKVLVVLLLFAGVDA
T2 sequence (P26664 384-746 limits assumed, chain 2 of 2): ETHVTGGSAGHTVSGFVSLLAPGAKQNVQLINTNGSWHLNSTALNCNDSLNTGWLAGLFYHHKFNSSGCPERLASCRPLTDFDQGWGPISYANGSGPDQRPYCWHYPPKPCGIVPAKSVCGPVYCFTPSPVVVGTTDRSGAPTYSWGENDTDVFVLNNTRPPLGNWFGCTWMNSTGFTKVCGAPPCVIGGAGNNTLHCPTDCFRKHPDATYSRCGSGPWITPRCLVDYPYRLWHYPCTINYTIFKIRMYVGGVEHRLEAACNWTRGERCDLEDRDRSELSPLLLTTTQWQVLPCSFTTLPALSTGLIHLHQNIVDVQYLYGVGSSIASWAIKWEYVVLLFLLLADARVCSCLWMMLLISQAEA
Kind of test: ELISA, E1/E2 heterodimer coated; crude periplasmic Fab.
As for B15, the OD405 nm is 0.17 OD405 nm. On the same count and under the same terms, under B2 stands 0.67 OD405 nm; under B3, 0.09 OD405 nm. As to B6, the OD405 nm came to 0.2 OD405 nm.

For B8, the OD405 nm was determined as 0.53 OD405 nm. Same read-out and setting: the figure for B9 is 0.12 OD405 nm; for B10 it is 0.08 OD405 nm.
